Patent US20230242675A1 (SHANGHAI EPIMAB BIOTHERAPEUTICS, published 2023)
Changes are numbered by the printed parent chain. Names may count otherwise.

What was measured:
[1] = biological target: T1, human PD-L1/His fusion protein (human, UniProt Q9NZQ7 19-239); test: BLI Octet RED96, antibody on AHC sensor, single conc. PD-L1/His; test group 3
Protocol: (§1) Briefly, antibodies were characterized for affinities and binding kinetics by Octet®RED96 biolayer interferometry (Pall ForteBio LLC). Antibodies were captured by Anti-hIgG Fc Capture (AHC) Biosensors (Pall) at a concentration of 100 nM for 30 seconds. Sensors were then dipped into running buffer (1×pH 7.2 PBS, 0.05% Tween 20, 0.1% BSA) for 60 seconds to check baseline. Binding was measured by dipping sensors into a single concentration of recombinant human PD-L1/His fusion protein (Novoprotein). Dissociation was followed by dipping sensors into running buffer for 1200 seconds. The association and dissociation curves were fitted to a 1:1 Langmuir binding model using ForteBio Data Analysis software (Pall). […] The off-rate ratio serves as a data normalization. Accordingly, in each test group, the off-rate ratios of the humanized antibodies can be compared with that of the chimeric antibody, and the off-rate ratios of each of the humanized antibodies can be compared to one another within all test groups.

[2] = biological target: T1, human PD-L1/His fusion protein; test: BLI off-rate; test group 3
Protocol: as §1

[3] = biological target: T1, human PD-L1/His fusion protein; test: BLI Octet RED96, antibody on AHC sensor, single conc. PD-L1/His; test group 4
Protocol: as §1

[4] = biological target: T1, human PD-L1/His fusion protein; test: BLI off-rate; test group 4
Protocol: as §1

[5] = biological target: T1, human PD-L1/His fusion protein; test: BLI Octet RED96, antibody on AHC sensor, single conc. PD-L1/His; test group 2
Protocol: as §1

[6] = biological target: T1, human PD-L1/His fusion protein; test: BLI off-rate; test group 2
Protocol: as §1

T1 sequence (Q9NZQ7 19-239 limits assumed): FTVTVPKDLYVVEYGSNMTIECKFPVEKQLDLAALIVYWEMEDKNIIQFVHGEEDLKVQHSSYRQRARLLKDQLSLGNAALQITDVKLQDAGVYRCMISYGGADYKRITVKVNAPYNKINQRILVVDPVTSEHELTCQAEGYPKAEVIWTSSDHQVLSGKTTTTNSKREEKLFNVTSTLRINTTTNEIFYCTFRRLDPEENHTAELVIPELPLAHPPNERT

B1: HuEM0005-87-18 (antibody, human IgG1, V domains shown)
VH: EVQLVQSGAEVKKPGASVKVSCKASGYTFTDYYINWVRQAPGQGLEWIGETIPNTGGTTYNQKFKARVTLTVDKSTSTVYMELSSLRSEDTAVYYCARYQSGSPFAYWGQGTTVTVSS
VL: EIVMTQSPATLSVSPGERATLSCKASQNVGTAVAWYQQKPGQAPRLLIYSASNRYTGVPDRFTGSGSGTEFTLTISSLQSEDFAVYYCQQHYSTPYTFGGGTKLEIK
With B1 the koff [1] was 0.00101 s⁻¹ and the “Off-Rate Ratio to that of EM0005-87c” value [2] was 75%.

B2: HuEM0005-87-21 (antibody, human IgG1, V domains shown)
VH: B1 VH with I48M, L70M, K74T
VL: B1 VL with E1D, E70D
B2 was tested, and the koff [3] was 0.000522 s⁻¹ and the “Off-Rate Ratio to that of EM0005-87c” value [4] was 58%.

B3: HuEM0005-87-23 (antibody, human IgG1, V domains shown)
VH: B1 VH
VL: B1 VL with E1D, E70D
In the case of B3, the koff [3] is reported as 0.000905 s⁻¹ and the “Off-Rate Ratio to that of EM0005-87c” value [4] is reported as 101%.

B4: HuEM0005-87-15 (antibody, human IgG1, V domains shown)
VH: B1 VH with T28S, R38K, R67K, V68A, V72R, V79A, S84K
VL: B1 VL with D60A, T63S
With B4 the koff [1] was 0.00129 s⁻¹ and the “Off-Rate Ratio to that of EM0005-87c” value [2] was 96%.

B5: HuEM0005-87-13 (antibody, human IgG1, V domains shown)
VH: B1 VH
VL: B1 VL with D60A, T63S
With B5 the koff [1] was 0.001 s⁻¹ and the “Off-Rate Ratio to that of EM0005-87c” value [2] was 74%.

B6: HuEM0005-87-16 (antibody, human IgG1, V domains shown)
VH: B1 VH with I48M, L70M, K74T
VL: B1 VL
For B6, the koff [1] was 0.000932 s⁻¹ and the “Off-Rate Ratio to that of EM0005-87c” value [2] was 69%.

B7: HuEM0005-87-20 (antibody, human IgG1, V domains shown)
VH: B1 VH with T28S, R38K, R67K, V68A, V72R, V79A, S84K
VL: B1 VL
With B7 the koff [3] was 0.000801 s⁻¹ and the “Off-Rate Ratio to that of EM0005-87c” value [4] was 89%.

B8: HuEM0005-87-24 (antibody, human IgG1, V domains shown)
VH: B1 VH with T28S, R67K, V68A, V79A
VL: B1 VL with E1D, E70D
With B8 the koff [3] was 0.00101 s⁻¹ and the “Off-Rate Ratio to that of EM0005-87c” value [4] was 113%.

B9: HuEM0005-87-17 (antibody, human IgG1, V domains shown)
VH: B1 VH with I48M, K74T
VL: B1 VL
With B9 the koff [1] was 0.000888 s⁻¹ and the “Off-Rate Ratio to that of EM0005-87c” value [2] was 66%.

B10: HuEM0005-87-14 (antibody, human IgG1, V domains shown)
VH: B1 VH with T28S, R67K, V68A, V79A
VL: B1 VL with D60A, T63S
With B10 the koff [1] was 0.00108 s⁻¹ and the “Off-Rate Ratio to that of EM0005-87c” value [2] was 80%.

B11: HuEM0005-87-19 (antibody, human IgG1, V domains shown)
VH: B1 VH with T28S, R67K, V68A, V79A
VL: B1 VL
For B11, the koff [3] was 0.000782 s⁻¹ and the “Off-Rate Ratio to that of EM0005-87c” value [4] was 87%.

B12: HuEM0005-87-22 (antibody, human IgG1, V domains shown)
VH: B1 VH with I48M, K74T
VL: B1 VL with E1D, E70D
For B12, the koff [3] was 0.000738 s⁻¹ and the “Off-Rate Ratio to that of EM0005-87c” value [4] was 82%.

B13: HuEM0005-90-7 (antibody, human IgG1, V domains shown)
VH: EVQLVQSGAEVKKPGASVKVSCKTSGYTFTSHSINWVRQATGQGLEWMGYMYIGNGYTEYNEKFKGRVTMTSNTSISTAYMELSSLRSEDTAVYYCAKITPVVAPYVMDYWGQGTSVTVSS
VL: DIQMTQSPSFLSASVGDRVTITCKASQDVGTAVAWYQQKPGKAPKLLIYWASTRHTGVPSRFSGSGSGTEFTLTISSLQPEDFATYYCQQYSSYPYTFGQGTKLEIK
In the case of B13, the koff [5] is reported as 0.00046 s⁻¹ and the “Off-Rate Ratio to that of EM0005-90c” value [6] is reported as 135%.

B14: HuEM0005-90-10 (antibody, human IgG1, V domains shown)
VH: B13 VH with T24A, M48I, V68A, M70L
VL: B13 VL with Q3V, E70D
With B14 the koff [5] was 0.00031 s⁻¹ and the “Off-Rate Ratio to that of EM0005-90c” value [6] was 91%.

B15: HuEM0005-90-15 (antibody, human IgG1, V domains shown)
VH: B13 VH
VL: B13 VL with S60D, S63T
With B15 the koff [1] was 0.000499 s⁻¹ and the “Off-Rate Ratio to that of EM0005-90c” value [2] was 131%.

B16: HuEM0005-90-13 (antibody, human IgG1, V domains shown)
VH: B13 VH with T24A, M70L
VL: B13 VL with S60D, S63T
B16 was tested, and the koff [1] was 0.000439 s⁻¹ and the “Off-Rate Ratio to that of EM0005-90c” value [2] was 115%.

B17: HuEM0005-90-8 (antibody, human IgG1, V domains shown)
VH: B13 VH with M48I, V68A, M70L
VL: B13 VL
B17 was tested, and the koff [5] was 0.000349 s⁻¹ and the “Off-Rate Ratio to that of EM0005-90c” value [6] was 102%.

B18: HuEM0005-90-14 (antibody, human IgG1, V domains shown)
VH: B13 VH with T24A, M48I, V68A, M70L
VL: B13 VL with S60D, S63T
In the case of B18, the koff [1] is reported as 0.000376 s⁻¹ and the “Off-Rate Ratio to that of EM0005-90c” value [2] is reported as 98%.

B19: HuEM0005-90-17 (antibody, human IgG1, V domains shown)
VH: B13 VH with T24A, M70L
VL: B13 VL with Q3V, S60D, S63T, E70D
B19 was tested, and the koff [1] was 0.000405 s⁻¹ and the “Off-Rate Ratio to that of EM0005-90c” value [2] was 106%.

B20: HuEM0005-90-16 (antibody, human IgG1, V domains shown)
VH: B13 VH with M48I, V68A, M70L
VL: B13 VL with S60D, S63T
With B20 the koff [1] was 0.000387 s⁻¹ and the “Off-Rate Ratio to that of EM0005-90c” value [2] was 101%.

B21: HuEM0005-90-18 (antibody, human IgG1, V domains shown)
VH: B13 VH with T24A, M48I, V68A, M70L
VL: B13 VL with Q3V, S60D, S63T, E70D
With B21 the koff [1] was 0.000334 s⁻¹ and the “Off-Rate Ratio to that of EM0005-90c” value [2] was 87%.

B22: HuEM0005-90-9 (antibody, human IgG1, V domains shown)
VH: B13 VH with T24A, M70L
VL: B13 VL with Q3V, E70D
In the case of B22, the koff [5] is reported as 0.000373 s⁻¹ and the “Off-Rate Ratio to that of EM0005-90c” value [6] is reported as 109%.

B23: HuEM0005-90-12 (antibody, human IgG1, V domains shown)
VH: B13 VH with M48I, V68A, M70L
VL: B13 VL with Q3V, E70D
With B23 the koff [5] was 0.000342 s⁻¹ and the “Off-Rate Ratio to that of EM0005-90c” value [6] was 100%.

B24: HuEM0005-90-20 (antibody, human IgG1, V domains shown)
VH: B13 VH with M48I, V68A, M70L
VL: B13 VL with Q3V, S60D, S63T, E70D
For B24, the koff [3] was 0.00249 s⁻¹ and the “Off-Rate Ratio to that of EM0005-90c” value [4] was 111%.

B25: HuEM0005-90-11 (antibody, human IgG1, V domains shown)
VH: B13 VH
VL: B13 VL with Q3V, E70D
With B25 the koff [5] was 0.000414 s⁻¹ and the “Off-Rate Ratio to that of EM0005-90c” value [6] was 121%.

B26: EM0005-90c(G55A) (antibody, human IgG1, V domains shown)
VH: QVQLKQSGAELVRPGSSVKMSCKTSGYTFTSHSINWVKQRPGQGLEWIGYMYIGNAYTEYNEKFKGKATLTSDTSSTTAYMQLSSLTSEDSAIYFCAKITPVVAPYVMDYWGQGTSVTVSS
VL: DIVMTQTHKFMSTSVGDRVSITCKASQDVGTAVAWYQQKPGQSPKLLIYWASTRHTGVPDRFTGSGSGTDFTLTISNVQSEDLADYFCQQYSSYPYTFGGGTKLELK
notes: Chimeric antibody with G55A in CDR-H2; also called HuEM0005-90C-G55A
With B26 the koff [3] was 0.00255 s⁻¹ and the “Off-Rate Ratio to that of EM0005-90c” value [4] was 113%.
